Experimental findings from the supplement of paper PMC10567573 are described below.

The data set can be described thus: protein stability index of a GFP-peptide fusion (GPS, HEK-293T) (PSI 1-6); higher = more stable. The settings on record: c terminus: a fixed tail appended.

± gives the standard deviation.
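Further: 24-mer peptide tiles fused after GFP, lentivirally expressed, FACS-sorted into six equal bins by GFP/DsRed ratio, decoded by Illumina sequencing, PSI is the read-weighted mean bin number.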

Regarding HLQHKLICTRKPEEIRGGGLLKYC [TENT5D], the protein stability index (treatment: DMSO) amounted to 2.21 ± 0.39 and the protein stability index (treatment: MLN4924 1 uM, 8 h) stood at 2.88 ± 0.095.
As to IKPNEILPPEKGREVAKELGIPYY [RHOBTB2], the protein stability index came to 3.73 ± 0.14 (treatment: DMSO) and 3.79 ± 0.12 (treatment: MLN4924 1 uM, 8 h).
Regarding TMLAGHYPFQDSEPVLLFGKIRRG [TRIB3], the protein stability index came out at 2.56 ± 0.16 (treatment: DMSO) and 2.77 ± 0.25 (treatment: MLN4924 1 uM, 8 h).
On to CRDLVDEAKNYLLLPQERPLMQGP [KLHL20], for which the protein stability index runs as follows: (treatment: DMSO) 2.65 ± 0.33; (treatment: MLN4924 1 uM, 8 h) 2.75 ± 0.12.
Regarding TTRHGEVGSALHRESFTSRQKTSG [C10orf62], the protein stability index is, setting by setting: (treatment: DMSO) 4.75 ± 0.38; (treatment: MLN4924 1 uM, 8 h) 4.78 ± 0.083.
TVNTHYFSIDEELVYENFYADFGP [CDC14A]: the protein stability index is, setting by setting: (treatment: DMSO) 2.37 ± 0.28; (treatment: MLN4924 1 uM, 8 h) 2.67 ± 0.4.
For SRRSYDDQLRSGSPPKSPRTTVHD [DNAJC4], in that order: 4.89 ± 0.31 and 4.98 ± 0.23.
The sequence RYLFEEDNLLRSTQKLSHSTKPSG [MATN2] showed a protein stability index (treatment: DMSO) of 3.82 ± 0.3 and a protein stability index (treatment: MLN4924 1 uM, 8 h) of 3.92 ± 0.3.
For RLFTVNDVKVGGSKYGIINLQSLK [DCAF4], in that order: 2.14 ± 0.14 and 2.27 ± 0.37.
CVSIPDVVGWFVLFYKPGIVLLLA [GULP1]: the protein stability index runs as follows: (treatment: DMSO) 2.63 ± 0.55; (treatment: MLN4924 1 uM, 8 h) 3.09 ± 0.066.
In the case of EGGDESDLSSESSIKKKFLKRKGK [EHMT1], the protein stability index (treatment: DMSO) was 5.54 ± 0.22 and the protein stability index (treatment: MLN4924 1 uM, 8 h) turned out to be 5.34 ± 0.56.
Turning to NISDADVHNAMDNYECNLYTFLYL [FEM1B], the protein stability index runs as follows: (treatment: DMSO) 2.25 ± 0.66; (treatment: MLN4924 1 uM, 8 h) 2.42 ± 0.45.
Take TGEKPYQCNICGKCFSCNSNLHRH [ZNF263]: the protein stability index (treatment: DMSO) worked out at 4.03 ± 0.2 and the protein stability index (treatment: MLN4924 1 uM, 8 h) turned out to be 4.52 ± 0.26.
TILLDGRRVKLQLWDTSGQGRFCT [RAB40B]: the protein stability index was 2.28 ± 0.22 (treatment: DMSO) and 2.14 ± 0.13 (treatment: MLN4924 1 uM, 8 h).
On to EGKAPIISGVTKAISSPTVSRLTD [TPPP], for which the protein stability index reads like this: (treatment: DMSO) 4.52 ± 0.2; (treatment: MLN4924 1 uM, 8 h) 4.51 ± 0.36.
LSLQDQVDTLTFQSQSLRDRARRF [MTUS2]: the protein stability index was 3.91 ± 0.26 (treatment: DMSO) and 3.84 ± 0.18 (treatment: MLN4924 1 uM, 8 h).
Regarding LEEELRQLKEEMARHLREYQELLN [PRPH], the protein stability index runs as follows: (treatment: DMSO) 3.27 ± 0.11; (treatment: MLN4924 1 uM, 8 h) 3.62 ± 0.32.
In turn, SVSRFFADSGADPKGEPGSKQSPP [FBF1] yielded a protein stability index (treatment: DMSO) of 5.09 ± 0.2 and a protein stability index (treatment: MLN4924 1 uM, 8 h) of 5.14 ± 0.14.
In the case of LEPPTMRKKRLLDRKVLLKSDSPT [GOLPH3L], the protein stability index by setting is: (treatment: DMSO) 4.38 ± 0.21; (treatment: MLN4924 1 uM, 8 h) 4.54 ± 0.17.
For the sequence EEQSDQSFSSLEPDNEQLMEEVIS [IQUB], the protein stability index runs as follows: (treatment: DMSO) 5.34 ± 0.27; (treatment: MLN4924 1 uM, 8 h) 5.61 ± 0.18.
Turning to QHKCDECGKSFTQSSGLIRHQRIH [ZSCAN9], the protein stability index is, setting by setting: (treatment: DMSO) 5.26 ± 0.19; (treatment: MLN4924 1 uM, 8 h) 5.28 ± 0.12.
For the sequence WAEIAKMLPGRTDNAVKNHWNSTI [MYBL2], the protein stability index was determined as 2.18 ± 0.28 (treatment: DMSO) and 2.16 ± 0.18 (treatment: MLN4924 1 uM, 8 h).
TRSKSDPVLHPSEERAAPVLSCEA [FAM189A2]: the protein stability index (treatment: DMSO) came to 5.49 ± 0.25 and the protein stability index (treatment: MLN4924 1 uM, 8 h) was found to be 5.61 ± 0.15.
Take GLAKEYIDPETKKHIPYREHKSLT [CSNK1G3]: the protein stability index (treatment: DMSO) was 4.21 ± 0.22 and the protein stability index (treatment: MLN4924 1 uM, 8 h) is 4.2 ± 0.13.
On to ECLPENLGGYVKIDLATWNFQFLP [PTPN9], for which the protein stability index worked out at 2.36 ± 0.33 (treatment: DMSO) and 2.21 ± 0.38 (treatment: MLN4924 1 uM, 8 h).
For VQDEFLDTPCTNRGLPLLKTDFGS [DLC1], in that order: 3.85 ± 0.43 and 3.91 ± 0.41.
For SEEELAAATTSKEQEPIGTDLDAV [MYBL2], in that order: 5.71 ± 0.19 and 5.58 ± 0.25.
As for KAALAALCPGDLIQAINGESTELM [PDLIM4], the protein stability index runs as follows: (treatment: DMSO) 3.495 ± 0.025; (treatment: MLN4924 1 uM, 8 h) 3.77 ± 0.21.
In the case of AKKKRLTKADIGTPSNFQHIGHVG [WASL], the protein stability index was found to be 3.52 ± 0.3 (treatment: DMSO) and 3.67 ± 0.18 (treatment: MLN4924 1 uM, 8 h).
For EGSRKSSRVKGSAPEIDPSSDGSN [KMT2E], in that order: 5.36 ± 0.17 and 5.21 ± 0.18.
For QQYRQDQRDGSKSEDELDQASTPT [CCND2], in that order: 5.45 ± 0.2 and 5.39 ± 0.12.
On to LFAPTLIYRDSYPRNPTVRWGYVA [SOAT1], for which the protein stability index is 2.44 ± 0.55 (treatment: DMSO) and 2.06 ± 0.35 (treatment: MLN4924 1 uM, 8 h).
For QPNTYADFEFLAFWQTQYNNMNAV [PKD2L1], the protein stability index (treatment: DMSO) amounted to 2.21 ± 0.4 and the protein stability index (treatment: MLN4924 1 uM, 8 h) came to 2.03 ± 0.24.
For TAYWALAGSIGGLFFAVGIAQYAL [SLC22A15], in that order: 3.06 ± 0.15 and 2.89 ± 0.18.
For GYSPNGRDANGWTLLHFSAARGKE [ASB7], the protein stability index runs as follows: (treatment: DMSO) 2.91 ± 0.47; (treatment: MLN4924 1 uM, 8 h) 2.94 ± 0.19.
For the sequence KLKPHEEPLRSEILSGKFTILNVR [PTPN9], the protein stability index turned out to be 3.01 ± 0.14 (treatment: DMSO) and 2.96 ± 0.11 (treatment: MLN4924 1 uM, 8 h).
For SFCHGSSLKRHLKTHTGEKPHRCH [ZNF449], in that order: 3.45 ± 0.27 and 3.61 ± 0.34.
ERQGNGQQAMSLAILRVIRLVRVF [KCNA3]: the protein stability index was 2.3 ± 0.13 (treatment: DMSO) and 2.56 ± 0.59 (treatment: MLN4924 1 uM, 8 h).
As for TGMWWRHLVAGGGAGAVSRTCTAP [SLC25A25], the protein stability index is, setting by setting: (treatment: DMSO) 2.32 ± 0.25; (treatment: MLN4924 1 uM, 8 h) 2.48 ± 0.42.
With TVAASDPDTGDNARLTYSIVGNQV [PCDHGC5], the protein stability index is 4.36 ± 0.26 (treatment: DMSO) and 4.31 ± 0.18 (treatment: MLN4924 1 uM, 8 h).
As to NSSGDFSQAHSTLKLANHQRPVSR [TRAF3IP2], the protein stability index runs as follows: (treatment: DMSO) 4.43 ± 0.32; (treatment: MLN4924 1 uM, 8 h) 4.63 ± 0.38.
With LHEEEHVLLMAICIVSPDRPGVQD [VDR], the protein stability index worked out at 2.44 ± 0.29 (treatment: DMSO) and 2.24 ± 0.25 (treatment: MLN4924 1 uM, 8 h).
In the case of QQLHQLPRGRLDLATQSLTVETCR [LRRC45], the protein stability index reads like this: (treatment: DMSO) 4.04 ± 0.23; (treatment: MLN4924 1 uM, 8 h) 3.9 ± 0.32.
For RSLQLRIQELELQAQIHGLPVPPT [TFE3], in that order: 3.01 ± 0.19 and 2.89 ± 0.21.
With ENLIRERSQQQEPLLCPSYQSYFK [KRT33B], the protein stability index is 3.39 ± 0.26 (treatment: DMSO) and 3.59 ± 0.59 (treatment: MLN4924 1 uM, 8 h).
Turning to NAAYFVGKWMKKFPESETKECPFR [SERPINB5], the protein stability index worked out at 2.77 ± 0.29 (treatment: DMSO) and 2.98 ± 0.47 (treatment: MLN4924 1 uM, 8 h).
Regarding SEADPQALLQAMKDLDGMDADILG [FBF1], the protein stability index by setting is: (treatment: DMSO) 5.28 ± 0.25; (treatment: MLN4924 1 uM, 8 h) 5.16 ± 0.35.
For the sequence SSTPDSTEGGNDDSDFRELHTARE [RTN2], the protein stability index runs as follows: (treatment: DMSO) 5.41 ± 0.29; (treatment: MLN4924 1 uM, 8 h) 5.53 ± 0.21.
For DLMETTQYMNEGELRVLADTYDSV [HDAC6], the protein stability index is 2.69 ± 0.52 (treatment: DMSO) and 3.58 ± 0.51 (treatment: MLN4924 1 uM, 8 h).
In turn, KKTWKILTIMPYNSAHHCVVEVEN [KLHL14] returned a protein stability index (treatment: DMSO) of 2.27 ± 0.37 and a protein stability index (treatment: MLN4924 1 uM, 8 h) of 2.64 ± 0.26.
VAAGVLCELAQDKEAAEAIEAEGA [CTNNB1]: the protein stability index is 5.31 ± 0.12 (treatment: DMSO) and 5.44 ± 0.12 (treatment: MLN4924 1 uM, 8 h).
For ETELAMRQSVENDIHGLRKVIDDT [KRT18], the protein stability index turned out to be 5.17 ± 0.28 (treatment: DMSO) and 5.2 ± 0.18 (treatment: MLN4924 1 uM, 8 h).
